Laboratory results reported in the RNAGym collection of RNA variant scans (doi:10.1021/acssynbio.7b00057).

B1: Pistol ribozyme (parent)
chain: GGGUCGUUGUUCCAUAAUCGCGUGGAUAUGGCACGCAAGUUUCUACCGGGCACCGUAAAUGUCCGACUGGAGCCGUUCGGGCGGCUAUAAACAGACCUCAGGCCCGAAGCGUGGCGGCACCUGCCGCCGGUGGUAAAAAAGAUCGGAAGAGCACACGUCU

Variants of: B1
Experiment: aptazyme ON/OFF ratio, guanine; higher = stronger switching; co-transcriptional cleavage with and without guanine

| Variant | aptazyme ON/OFF ratio |
| --- | --- |
| U8C G9C U10G U11A C12A | 1.21 |
| U8C G9C U10G U11A C12U | 1.02 |
| U8C G9C U10G U11A C12G | 1.26 |
| U8C G9C U10C U11G C13A | 1.14 |
| U8C G9C U10C U11G C13U | 1.17 |
| U8C G9C U10C U11G C13G | 1.31 |
| U8C G9C U11A C12A C13A | 1.09 |
| U8C G9C U11A C12A C13G | 1.12 |
| U8C G9C U11A C12A C13U | 1.05 |
| U8C G9C U11C C12U C13G | 1.02 |
| U8C G9C U11C C12U C13A | 1.05 |
| U8C G9C U11C C12U C13U | 1.07 |
| U8C G9C U10G U11G C12U C13G | 1.13 |
| U8C G9C U10G U11G C12U C13U | 1.09 |
| U8C G9C U10G U11G C12U C13A | 1.07 |
| U8C G9A U11A C12A C13A | 1.15 |
| U8C G9A U11A C12A C13G | 1.13 |
| U8C G9A U11A C12A C13U | 1.34 |
| U8C G9A U10G U11A C13G | 1.04 |
| U8C G9A U10G U11A C13U | 1.02 |
| U8C G9A U10G U11A C13A | 1.03 |

| Variant | aptazyme ON/OFF ratio |
| --- | --- |
| U8C G9C U10G U11A C13U | 1.06 |
| U8C G9C U10G U11A C13G | 1.19 |
| U8C G9C U10G U11A C13A | 1.13 |
| U8C G9C U10G | 1.43 |
| U8C G9C U10A | 1.51 |
| U8C G9C U10C | 1.97 |
| U8C G9C U11A C12U C13A | 1.12 |
| U8C G9C U11A C12U C13U | 1.07 |
| U8C G9C U11A C12U C13G | 1.12 |
| U8C G9C U10C U11C C13G | 1.04 |
| U8C G9C U10C U11C C13A | 1.01 |
| U8C G9C U10C U11C C13U | 0.96 |
| U8C G9C U10C U11C C12G C13U | 1.06 |
| U8C G9C U10C U11C C12G C13A | 1.12 |
| U8C G9C U10C U11C C12G C13G | 1.09 |
| U8C G9C U10C U11C C12U | 0.966 |
| U8C G9C U10C U11C C12G | 1.08 |
| U8C G9C U10C U11C C12A | 1.02 |
| U8C G9C U10A U11G C13G | 1.2 |
| U8C G9C U10A U11G C13A | 1.2 |
| U8C G9C U10A U11G C13U | 1.13 |

| Variant | aptazyme ON/OFF ratio |
| --- | --- |
| U8C G9A U11A C13G | 1.04 |
| U8C G9A U11A C13A | 1.2 |
| U8C G9A U11A C13U | 1.22 |
| U8C G9C U11A C12G C13U | 1.07 |
| U8C G9C U11A C12G C13G | 1.15 |
| U8C G9C U11A C12G C13A | 1.17 |
| U8C G9C U11A C13A | 1.04 |
| U8C G9C U11A C13G | 1.12 |
| U8C G9C U11A C13U | 1.07 |
| U8C G9A U11A C12G | 1.18 |
| U8C G9A U11A C12U | 1.1 |
| U8C G9A U11A C12A | 1.25 |
| U8C G9A U10G U11A C12U | 1.04 |
| U8C G9A U10G U11A C12G | 1.14 |
| U8C G9C U10A U11A C12A | 1.12 |
| U8C G9C U10A U11A C12G | 1.25 |
| U8C G9C U10A U11A C12U | 1.05 |
| U8C G9C U10A U11G C12G C13G | 1.11 |
| U8C G9C U10A U11G C12G C13U | 1.09 |
| U8C G9C U10A U11G C12G C13A | 1.19 |
| U8C G9C U10G U11C C12A | 1.22 |

| Variant | aptazyme ON/OFF ratio |
| --- | --- |
| U8C G9C U10G U11C C12G | 1.21 |
| U8C G9C U10G U11C C12U | 1.05 |
| U8C G9C U10C U11C C12A C13G | 1.04 |
| U8C G9C U10C U11C C12A C13U | 1.02 |
| U8C G9C U10C U11C C12A C13A | 1.02 |
| U8C G9A U10G U11C C12A C13A | 1.15 |
| U8C G9A U10G U11C C12A C13G | 1.1 |
| U8C G9A U10G U11C C12A C13U | 1.22 |
| U8C G9A U11C C12A C13A | 1.15 |
| U8C G9A U11C C12A C13G | 1.14 |
| U8C G9A U11C C12A C13U | 1.17 |
| U8C G9A U10G U11A C12A C13U | 1.15 |
| U8C G9A U10G U11A C12A C13A | 1.14 |
| U8C G9A U10G U11A C12A C13G | 1.12 |
| U8C G9A U11C C12U C13G | 1.08 |
| U8C G9A U11C C12U C13A | 1.16 |
| U8C G9A U11C C12U C13U | 1.22 |
| U8C G9C U10C U11G C12A C13A | 1.2 |
| U8C G9C U10C U11G C12A C13G | 1.16 |
| U8C G9C U10C U11G C12A C13U | 1.15 |
